Values of other authors as cited in patent publication US20230173142A1, “BALLISTIC DELIVERY TO MULTILAYERED TISSUES AND RELATED PARTICLES, COMPOSITIONS, METHODS AND SYSTEMS” (CALIFORNIA INSTITUTE OF TECHNOLOGY, priority 2021, published 2023).

Test system: wound healing
Details: Material: Nanofiber

B1: G-CSF: granulocyte colony-stimulating factor (protein, UniProt P09919 31-207, looked up)
Granulocyte …: TPLGPASSLPQSFLLKCLEQVRKIQGDGAALQEKLVSECATYKLCHPEELVLLGHSLGIPWAPLSSCPSQALQLAGCLSQLHSGLFLYQGLLQALEGISPELGPTLDTLQLDVADFATTIWQQMEELGMAPALQPTQGAMPAFASAFQRRAGGVLVASHLQSFLEVSYRVLRHLAQP
Effect: Improved wound closure, scar reduction, fibroblast maturation, as well
